Assay [1] concerns the target RBDSARS-CoV (SARS-CoV S protein residues 318-510, C-terminal His-tag) (SARS-CoV, UniProt P59594 318-510). As to the kind of experiment: ELISA. A general note: ELISA stands for enzyme-linked immunosorbent assay.
In assay [2] the target is RBDSARS-CoV-2 (SARS-CoV-2 S protein residues 319-539, C-terminal His-tag) (SARS-CoV-2, UniProt P0DTC2 319-539). Nature of the assay: ELISA.

As usually defined, the IC50 is the concentration that inhibits the measured activity by half. High values mean weaker potency, low ones greater potency.

B1: 5p-59 (VHH)
VHH: QVQLVESGGGLVQAGGSLRLSCAVSGRTISTFGMAWFRQAPGKVREFVATITRDEDLTLYADSVKGRFTISRDTAKNTVFLQMNSLKIEDTALYYCAVRRDDSWGYSRQSIEYDYWGQGTQVTVSS
Turning to B1, the results for the IC50 in assay [1] and in assay [2] were > 8000 nM and < 10 nM, respectively.

B2: 5p-58 (VHH)
VHH: HVQLVESGGGLVQAGESLRLLCVASGSIDSINAMGWFRQAPGKQRELVASISNMHTTMYAESVKGRFTISRDNFKNTADLQMNSLKPEDTAIYFCNLRQGCSYNGCDEYWGQGTQVTVSS
For B2, the IC50 is 1000 to 8000 nM in assay [1] and < 10 nM in assay [2].

B3: 5p-13 (VHH)
VHH: HVQLVESGGGLVQPGGSLRLSCVASGLTFSRYTMAWFRQAPGKDRIFVAAVSKPGGSTYYADSVKGRFTISRDNAKNTVYLQMNSLKPDDTAVYSCAADLTVLLTANPAHYNYWGHGTQVTVSS
B3: the IC50 in assay [1] and in assay [2] was < 10 nM each time.

B4: 5p-14 (VHH)
VHH: QVQLVESGGGLVQPGGSLRLSCVASGLTFSRYTMAWFRQAPGKERVFVAAVSKPGGSTYYADSVKGRFTISRDNAKNTVYLQTSRLNPDDTAVYSCAADLTVLLTANPGHYKYWGQGTQVTVSS
Regarding B4, the IC50 in assay [1] and in assay [2] was < 10 nM each time.

B5: 5p-40 (VHH)
VHH: DVQLVESGGGLVQPGDSLRLSCVASGLTFSRYTMAWFRQAPGKDRIFVAAVSKPGGSTYYADSVKGRFTISRDNAQNTVYLQMNSLKPDDTAVYSCAAGLTVLLTANPAHYNYWGQGTQVTVSS
Regarding B5, the IC50 in assay [1] and in assay [2] was < 10 nM throughout.

B6: 5p-1 (VHH)
VHH: QVQLVESGGGLVQAGGSLRLSCAVSGRTGNRWPMGWFRQAPGKEREFVATISWSDSRTYYADSVKGRFTISRDNAKNTVFLQMASLKPEDTAVYYCAAAHARVYGANWSSSNRDDYDSWGQGTQVTVSS
With B6, the IC50 in assay [1] was 100 to 1000 nM; in assay [2], 10 to 100 nM.

B7: 4P-1 (VHH)
VHH: DVQLVESGGGLVQAGGSLRLSCAASGRTGSRYPMGWFRQAPGKEREFVATISWSDSRTYYADSVKGRFTISRDNAKNTVFLQMASLKPEDTAVYYCAAAHARVYGANWSSSNRYDYDSWGQGTQVTVSS
For the molecule B7, the results for the IC50 in assay [1] and in assay [2] were 1000 to 8000 nM and 10 to 100 nM, respectively.

B8: 5p-5 (VHH)
VHH: QVQLVESGGGLVQAGGSLRLSCAVSGRTGNRWPMGWFRQAPGKEREFVATISWSDSRTYYADSVKGRFTISRDNAKNTVFLQMASLKPEDTAVYYCAAATARVYGANWSSSNRDDYDSWGQGTQVTVSS
Take B8: the IC50 in assay [1] and in assay [2] was 10 to 100 nM each time.

B9: 5p-2 (VHH)
VHH: QVQLVESGGGLVQAGGSLRLSCAVSGRTGSRWPMGWFRQAPGKEREFVATISWSDSRTYYADSVKGRFTIARDNAKNTVFLQMASLKPEDTAVYYCAAAHGRVYGANWSSTNRYDYDSWGQGTQVTVSS
Take B9: the IC50 in assay [1] and in assay [2] was 10 to 100 nM each time.

B10: 4P-44 (VHH)
VHH: DVQLVESGGGLVQAGGSLRLSCAASGRTFSRYAAGWFRQAPGKEREFVAVIEWNGDSAYYADSVKGRFTISRDNAKNTVYLQMNRLKPEDTAVYICAVGGNHYSRSKYYTADEYDYWGQGTQVTVSS
Consider B10, for which the results for the IC50 in assay [1] and in assay [2] were 100 to 1000 nM and < 10 nM, respectively.

B11: 5p-121 (VHH)
VHH: DVQLVESGGGLVQAGGSLRLSCAASGRTFSRYAAGWFRQAPGKERSFVAVIEWDGDTAYYSDSVKGRFTISRDNAKNTLYLQMNRLKPEDTAVYICAVGGNHYSSSKYYIADEYDYWGQGTQVTVSS
On to B11, for which the IC50 in assay [1] and in assay [2] was < 10 nM each time.

B12: 5p-120 (VHH)
VHH: HVQLVESGGGLVQAGGSLRLSCAASGRTFSRYAAGWFRQAPGKEREFVAVIEWDGDSAYYADSVKGRFTISRDNAKNTVYLQMNRLKPEDTAVYICAVGGNHYSRSKYYNLDEYDYWGQGTQVTVSS
As to B12, the IC50 in assay [1] and in assay [2] was < 10 nM throughout.

B13: 5p-117 (VHH)
VHH: DVQLVESGGGLVQAGESLRLSCAASGRTFRNFAAGWFRQTPGKDREFVAVIEYNGDSAYYADSVKGRFTISRDNAKNTVYLQMNRLKPGDTAVYICAIGGNHYDPSKYYIADEYDYWGQGTQVTVSS
As to B13, the IC50 in assay [1] and in assay [2] was < 10 nM in each case.

B14: 4P-71 (VHH)
VHH: HVQLVESGGGLVQAGGSLRLSCAASGRTFSRFAAGWFRQAPGKEREFVAVIDWNGGSAYYADSVKGRFTISRDNAKNTVYLQMNRLKPGDTAVYICAIGGNHYDPSRYYTADEYDYWGQGTQVTVSS
Turning to B14, the IC50 in assay [1] was 10 to 100 nM; in assay [2] it was < 10 nM.

B15: 4P-42 (VHH)
VHH: HVQLVESGGGLVQAGGSLRLSCAASGRTFSRYAAGWFRQAPGKEREFVAVIEWDGDNAYYADSVKGRFTISRDNAKNTVYLQMNRLKPEDTAVYICAVGGNHYSPNKYYTADEYDYWGQGTQVTVSS
On to B15, for which the IC50 in assay [1] and in assay [2] was < 10 nM each time.

B16: 5p-119 (VHH)
VHH: QVQLVESGGGLVQAGGSLRLSCAASRRTFSNYAAGWFRQAPGKEREFVAVIEWNGESAYYADSVKGRFTISRDNAKNTVYLQMNRLKPEDTAIYICAIGGNHYSRSKYYIADEYDYWGQGTQVTVSS
Regarding B16, the IC50 in assay [1] and in assay [2] was < 10 nM in each case.

B17: 5p-34 (VHH)
VHH: QVQLVESGGGLVQAGGSLRLSCTASGRTFSRYAAGWFRQAPGKEREFVAVIEWNGDSAYYTDSAKGRFTISRDNTKNTVYLQMNRLKPEDTAVYICAIGGNHYSPSKYYIADEYDYWGQGTQVTVSS
Regarding B17, the IC50 in assay [1] and in assay [2] was < 10 nM each time.

B18: 4P-92 (VHH)
VHH: QVQLVESGGGLVQTGGSLRLSCAVSGYTFSTFPTAWFRQAPGKEREFVAGIRWNGGSRDYTEYADFVKGRFTISRDNAKNMVYLQMISLKPEDTALYYCAASHGVIDGTSANDYRYWGQGTQVTVSS
For the molecule B18, the IC50 is 1000 to 8000 nM in assay [1] and < 10 nM in assay [2].

B19: 5p-25 (VHH)
VHH: HVQLVESGGGLVQAGGSLRLSCAASGHISSRYAMAWFRQGPGKERDFVAGMSSGASTFYAESVKGRFTLSRDNAKNAMYLQMNSLKPEDTAVYYCAADSSPLRYGLSYSSNRYDYWGQGTQVTVSS
With B19, the IC50 in assay [1] and in assay [2] was < 10 nM in each case.

B20: 5p-26 (VHH)
VHH: DVQLVESGGGLVQAGGSLRLSCAASGRTLRSYNMGWFRQPPGKEREFVAALSWTGLGTYYADSVKGRFTISRDITKNTLYLQMDSLQPEDTANYYCAADSTLDRLHSAESDYRYWGQGTQVTVSS
For B20, the IC50 in assay [1] is > 8000 nM; in assay [2], < 10 nM.

B21: 5p-47 (VHH)
VHH: DVQLVESGGGLVQAGGSLRLSCAASGRTFTFNRFAMGWFRQAPEKEREFVAAISRTGRSTEYADSVKGRFAISRDNTKNTVYLQMNSLKPEDTAVYYCAALEAPLLHLIATQRRQYEYWGQGTQVTVSS
For B21, the figures for the half-inhibitory concentration (IC50) in assay [1] and in assay [2] were 1000 to 8000 nM and < 10 nM, respectively.

B22: 4P-46 (VHH)
VHH: HVQLVESGGGLVQAGGSLRLSCAASRIFSTSAMGWFRQAPGKEREFVAAISWSGTNTHYADSVKGRFAISTDNAKNTVYLQMNSLKPEDTAVYYCAQGGWGISQPIEVDYWGKGTQVTVSS
Turning to B22, the IC50 is 10 to 100 nM in assay [1] and < 10 nM in assay [2].

B23: 5p-124 (VHH)
VHH: HVQLVESGGGLVQAGDSLRLSCAASRIFSTSAMGWFRQAPGKEREFVAAISWSGGNVHYLDSVKGRFAISADNSKSTVFLQMNSLKPEDTAVYYCAQGGWGIRQVIEVDYWGKGTQVTVSS
As to B23, the IC50 in assay [1] and in assay [2] was < 10 nM each time.

B24: 5p-37 (VHH)
VHH: QVQLVESGGGLVQAGGSLRLSCAASRIFSTSAMGWFRQAPGKEREFVAAISWSGTNTHYTDPVKGRFAISTDNAKSTVYLQMNSLKPEDTAVYYCAQGGWGIRQPIEVDYWGKGTQVTVSS
Take B24: the 50% inhibitory concentration (IC50) is 10 to 100 nM in assay [1] and < 10 nM in assay [2].

B25: 4P-47 (VHH)
VHH: HVQLVESGGGLVQAGGSLRLSCAADARFSTSAMGWFRQAPGKEREFVAAISWSGANTHYADTVKGRFTISTDTAKNTVYLQMNSLKPEDTAVYYCAQGGWGITQPISVDYWGKGTQVTVSS
With B25, the IC50 in assay [1] and in assay [2] was < 10 nM in each case.

B26: 5p-127 (VHH)
VHH: EVQLVESGGGLVQAGGSLRLSCAASRIFSTSAMGWFRQAPGKEREFVAAISWSGTDTHYANSVKGRFAISTDAAKNTVYLQMNSLEPEDTAVYYCAQGGWGVRQPVEVDYWGKGTQVTVSS
Turning to B26, the IC50 in assay [1] and in assay [2] was < 10 nM throughout.

B27: 5p-125 (VHH)
VHH: HVQLVESGGGLVQAGDSLRLSCAASRIFSTSAMGWFRQAPGKEREFVAAISWSGTNTHYADPVKGRFAISTDNAKNTVYLQMNSLKPEDTAVYYCAQGGWGLRQPIEVDYWGKGTQVTVSS
As for B27, the IC50 was 10 to 100 nM in assay [1] and < 10 nM in assay [2].

B28: 5p-128 (VHH)
VHH: HVQLVESGGGLVQAGGSLRLSCAASRIFSTSAMGWFRQAPGKERQFVAGTDWSGTNIHYADSVKGRFAISTDNAKNTVYLQMNSLKPEDTAVYYCAQGGWGVSQPIEVDYWGKGTQVTVSS
As to B28, the values for the IC50 in assay [1] and in assay [2] were 10 to 100 nM and < 10 nM, respectively.

The record behind these values is US20250002563A1 (UNIVERSITY OF PITTSBURGH OF THE COMMONWEALTH SYSTEM OF …, published 2025).
